Measured values as given in patent publication US20250388702A1 (Dana-Farber, published 2025).

T1: Human HHLA2 (human, UniProt Q9UM44 23-414)
T1 construct: also called B7-H7; B7-H5
T1 sequence: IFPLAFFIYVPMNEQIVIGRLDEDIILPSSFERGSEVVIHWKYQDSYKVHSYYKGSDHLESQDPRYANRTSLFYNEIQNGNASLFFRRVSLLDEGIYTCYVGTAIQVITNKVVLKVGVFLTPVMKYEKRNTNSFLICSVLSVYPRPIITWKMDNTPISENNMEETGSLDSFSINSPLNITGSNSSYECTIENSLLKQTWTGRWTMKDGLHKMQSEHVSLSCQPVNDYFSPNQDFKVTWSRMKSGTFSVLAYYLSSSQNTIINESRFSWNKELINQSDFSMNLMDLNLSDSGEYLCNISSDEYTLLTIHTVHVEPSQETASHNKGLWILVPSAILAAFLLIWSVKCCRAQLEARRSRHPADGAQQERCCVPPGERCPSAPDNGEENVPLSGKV


Experiments:
[1] = molecular target: T2, KIR3DL1 (UniProt P43629 22-444, limits assumed); assay: cell microarray on transfected HEK293 cells, HHLA2-mIgG2a probe, AF647 anti-mouse IgG detection
T2 construct: whole, on cells
Protocol: (§1) A library of ˜5500 full length cDNA clones covering more than 3,500 different plasma membrane proteins was arrayed in duplicate across 13 microarray slides (“slide sets”). Human HEK293 cells were grown above the cDNA clones and reverse-transfected. An expression vector (pIRES-hEGFR-IRES-ZsGreen1) was spotted in quadruplicate on every slide and was used to ensure that a minimal threshold of transfection efficiency had been achieved or exceeded on every slide.
(§2) Two replicate slides were screened for each of the 13 slide sets. Fluorescent images were analyzed and quantitated (for transfection efficiency) using ImageQuant software (GE). A protein ‘hit’ was defined as duplicate spots showing a raised signal compared to background levels. This was achieved by visual inspection using the images gridded on the ImageQuant software.

[2] = molecular target: T3, KIR2DL5B (UniProt Q8NHK3 22-375, limits assumed); assay: as above
T3 construct: whole, on cells
Protocol: as §1, §2

[3] = molecular target: T4, EGFR (human, UniProt P00533 25-1210); assay: as above
T4 construct: whole, on cells; also called hEGFR
Protocol: as §1, §2

[4] = molecular target: T5, KIR2DL2 (UniProt P43627 22-348, limits assumed); assay: as above
T5 construct: whole, on cells
Protocol: as §1, §2

[5] = molecular target: T6, KIR2DL4 (UniProt Q99706 22-377, limits assumed); assay: as above
T6 construct: whole, on cells
Protocol: as §1, §2

[6] = molecular target: T7, KIR2DL1 (UniProt P43626 22-348, limits assumed); assay: as above
T7 construct: whole, on cells
Protocol: as §1, §2

[7] = molecular target: T8, KIR2DL5A (UniProt Q8N109 22-375, limits assumed); assay: as above
T8 construct: whole, on cells
Protocol: as §1, §2

[8] = molecular target: T9, KIR3DL2 (UniProt P43630 22-455, limits assumed); assay: as above
T9 construct: whole, on cells
Protocol: as §1, §2

[9] = molecular target: T1, Human HHLA2; assay: as above
Protocol: as §1, §2

[10] = molecular target: T8, KIR2DL5A; assay: HEK293 cell microarray, hybridoma supernatant
Protocol: (§3) In Table 4, replicate microarray slides expressing the KIR family cDNA panel (as in FIG. 1A, FIG. 2B, and FIG. 2C) were fixed and blocked with buffer containing PBS/0.5% BSA and incubated for 1 hour at room temperature with individual KIR3DL3 mAb hybridoma supernatants at 1:5, 1:25 and 1:250 dilutions in PBS/0.1% BSA. Cell arrays were washed with PBS and incubated for 1 hour at room temperature in PBS/0.1% BSA containing AF647-conjugated goat anti-mouse IgG (H+L) (Life Technologies, A21235). Slides were washed with PBS, dried, and imaged for ZsGreen1 and AF647 fluorescence.

[11] = molecular target: T10, KIR2DS3 (UniProt Q14952 22-304, limits assumed); assay: HEK293 cell microarray
T10 construct: whole, on cells
Protocol: as §3, with “Replicate” for “In Table 4, replicate”, “a complete” for “the”, “panel” for “panel (as in FIG. 1A, FIG. 2B, and FIG. 2C)”
as §3

[12] = molecular target: T2, KIR3DL1; assay: HEK293 cell microarray
Protocol: as §3, with “Replicate” for “In Table 4, replicate”, “a complete” for “the”, “panel” for “panel (as in FIG. 1A, FIG. 2B, and FIG. 2C)”
as §3

[13] = molecular target: T5, KIR2DL2; assay: HEK293 cell microarray
Protocol: as §3, with “Replicate” for “In Table 4, replicate”, “a complete” for “the”, “panel” for “panel (as in FIG. 1A, FIG. 2B, and FIG. 2C)”
as §3

[14] = molecular target: T11, KIR2DS5 (UniProt Q14953 22-304, limits assumed); assay: HEK293 cell microarray
T11 construct: whole, on cells
Protocol: as §3, with “Replicate” for “In Table 4, replicate”, “a complete” for “the”, “panel” for “panel (as in FIG. 1A, FIG. 2B, and FIG. 2C)”
as §3

[15] = molecular target: T12, KIR2DS2 (UniProt P43631 22-304, limits assumed); assay: HEK293 cell microarray
T12 construct: whole, on cells
Protocol: as §3, with “Replicate” for “In Table 4, replicate”, “a complete” for “the”, “panel” for “panel (as in FIG. 1A, FIG. 2B, and FIG. 2C)”
as §3

[16] = molecular target: T6, KIR2DL4; assay: HEK293 cell microarray
Protocol: as §3, with “Replicate” for “In Table 4, replicate”, “a complete” for “the”, “panel” for “panel (as in FIG. 1A, FIG. 2B, and FIG. 2C)”
as §3

[17] = molecular target: T13, KIR2DS1 (UniProt Q14954 22-304, limits assumed); assay: HEK293 cell microarray
T13 construct: whole, on cells
Protocol: as §3, with “Replicate” for “In Table 4, replicate”, “a complete” for “the”, “panel” for “panel (as in FIG. 1A, FIG. 2B, and FIG. 2C)”
as §3

[18] = molecular target: T14, KIR3DS1 (UniProt Q14943 22-382, limits assumed); assay: HEK293 cell microarray
T14 construct: whole, on cells
Protocol: as §3, with “Replicate” for “In Table 4, replicate”, “a complete” for “the”, “panel” for “panel (as in FIG. 1A, FIG. 2B, and FIG. 2C)”
as §3

[19] = molecular target: T7, KIR2DL1; assay: HEK293 cell microarray
Protocol: as §3, with “Replicate” for “In Table 4, replicate”, “a complete” for “the”, “panel” for “panel (as in FIG. 1A, FIG. 2B, and FIG. 2C)”
as §3

[20] = molecular target: T15, KIR2DL3 (UniProt P43628 22-341, limits assumed); assay: HEK293 cell microarray
T15 construct: whole, on cells
Protocol: as §3, with “Replicate” for “In Table 4, replicate”, “a complete” for “the”, “panel” for “panel (as in FIG. 1A, FIG. 2B, and FIG. 2C)”
as §3

[21] = molecular target: T9, KIR3DL2; assay: HEK293 cell microarray
Protocol: as §3, with “Replicate” for “In Table 4, replicate”, “a complete” for “the”, “panel” for “panel (as in FIG. 1A, FIG. 2B, and FIG. 2C)”
as §3

[22] = molecular target: T16, Human KIR3DL3 (human, UniProt Q8N743 26-410); assay: flow cytometry; blockade of HHLA2-mIgG2a binding to KIR3DL3-transfected cells
T16 construct: also called Killer cell immunoglobulin-like receptor 3DL3
Protocol: (§4) The indicated concentrations of KIR3DL3 mAbs were pre-incubated with KIR3DL3 transfected 300.19 cells for 30 minutes at 4° C. […] EC50 and IC50 analysis were conducted using GraphPad Prism®.

[23] = molecular target: T16, Human KIR3DL3; assay: flow cytometry, KIR3DL3-transfected 300.19 cells
[24] = molecular target: T16, Human KIR3DL3; assay: cell-based or functional assay
[25] = molecular target: T3, KIR2DL5B; assay: HEK293 cell microarray
Protocol: as §3, with “Replicate” for “In Table 4, replicate”, “a complete” for “the”, “panel” for “panel (as in FIG. 1A, FIG. 2B, and FIG. 2C)”
as §3

[26] = molecular target: T8, KIR2DL5A; assay: HEK293 cell microarray
Protocol: as §3, with “Replicate” for “In Table 4, replicate”, “a complete” for “the”, “panel” for “panel (as in FIG. 1A, FIG. 2B, and FIG. 2C)”
as §3

[27] = molecular target: T16, Human KIR3DL3; assay: flow cytometry, KIR3DL3-transfected 300.19 cells; remark: listed apart in the source
[28] = molecular target: T16, Human KIR3DL3; assay: flow cytometry; blockade of HHLA2-mIgG2a binding to KIR3DL3-transfected 300.19 cells; Table 3; blockade of HHLA2-mouse IgG2a binding to KIR3DL3 transfected 300.19 cells, 4° C
Protocol: as §4

T6 sequence (Q99706 22-377 limits assumed): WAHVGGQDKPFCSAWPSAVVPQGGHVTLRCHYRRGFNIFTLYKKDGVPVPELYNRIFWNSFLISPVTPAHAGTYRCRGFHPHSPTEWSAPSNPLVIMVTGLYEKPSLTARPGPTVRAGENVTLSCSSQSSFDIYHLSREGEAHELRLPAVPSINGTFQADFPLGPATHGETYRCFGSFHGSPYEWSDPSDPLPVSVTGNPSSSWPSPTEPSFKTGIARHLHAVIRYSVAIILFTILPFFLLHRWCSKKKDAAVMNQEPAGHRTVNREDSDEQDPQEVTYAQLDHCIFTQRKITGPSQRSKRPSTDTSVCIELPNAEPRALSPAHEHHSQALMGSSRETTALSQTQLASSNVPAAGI
T9 sequence (P43630 22-455 limits assumed): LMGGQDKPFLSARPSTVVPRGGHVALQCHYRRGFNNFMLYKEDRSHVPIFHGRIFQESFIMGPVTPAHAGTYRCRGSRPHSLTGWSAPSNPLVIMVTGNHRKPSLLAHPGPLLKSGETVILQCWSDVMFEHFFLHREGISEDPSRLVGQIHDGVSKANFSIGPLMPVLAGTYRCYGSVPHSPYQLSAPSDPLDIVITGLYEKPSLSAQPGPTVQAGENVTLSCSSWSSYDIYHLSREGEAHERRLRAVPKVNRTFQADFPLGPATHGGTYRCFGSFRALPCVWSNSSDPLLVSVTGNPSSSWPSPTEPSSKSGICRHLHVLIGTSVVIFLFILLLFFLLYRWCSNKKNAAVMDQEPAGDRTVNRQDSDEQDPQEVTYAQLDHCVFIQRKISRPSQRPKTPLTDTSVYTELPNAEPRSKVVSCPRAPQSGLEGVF
T5 sequence (P43627 22-348 limits assumed): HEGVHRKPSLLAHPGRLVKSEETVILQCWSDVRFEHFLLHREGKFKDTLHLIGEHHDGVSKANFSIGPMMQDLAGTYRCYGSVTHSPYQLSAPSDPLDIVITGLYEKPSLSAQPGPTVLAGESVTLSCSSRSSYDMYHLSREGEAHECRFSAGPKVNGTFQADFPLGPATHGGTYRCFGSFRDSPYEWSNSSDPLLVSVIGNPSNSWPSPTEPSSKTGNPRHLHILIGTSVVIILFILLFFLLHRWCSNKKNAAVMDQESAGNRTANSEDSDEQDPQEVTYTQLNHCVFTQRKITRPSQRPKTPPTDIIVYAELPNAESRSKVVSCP
T8 sequence (Q8N109 22-375 limits assumed): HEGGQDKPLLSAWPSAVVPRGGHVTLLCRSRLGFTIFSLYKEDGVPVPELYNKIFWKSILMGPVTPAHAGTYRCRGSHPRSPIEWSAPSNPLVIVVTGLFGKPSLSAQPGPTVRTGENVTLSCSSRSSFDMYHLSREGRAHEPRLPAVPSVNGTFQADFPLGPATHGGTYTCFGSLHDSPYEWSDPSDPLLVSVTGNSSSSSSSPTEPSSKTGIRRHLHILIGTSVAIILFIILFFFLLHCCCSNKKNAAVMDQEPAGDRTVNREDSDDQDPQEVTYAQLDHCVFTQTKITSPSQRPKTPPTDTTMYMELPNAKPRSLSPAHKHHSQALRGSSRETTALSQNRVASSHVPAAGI
T2 sequence (P43629 22-444 limits assumed): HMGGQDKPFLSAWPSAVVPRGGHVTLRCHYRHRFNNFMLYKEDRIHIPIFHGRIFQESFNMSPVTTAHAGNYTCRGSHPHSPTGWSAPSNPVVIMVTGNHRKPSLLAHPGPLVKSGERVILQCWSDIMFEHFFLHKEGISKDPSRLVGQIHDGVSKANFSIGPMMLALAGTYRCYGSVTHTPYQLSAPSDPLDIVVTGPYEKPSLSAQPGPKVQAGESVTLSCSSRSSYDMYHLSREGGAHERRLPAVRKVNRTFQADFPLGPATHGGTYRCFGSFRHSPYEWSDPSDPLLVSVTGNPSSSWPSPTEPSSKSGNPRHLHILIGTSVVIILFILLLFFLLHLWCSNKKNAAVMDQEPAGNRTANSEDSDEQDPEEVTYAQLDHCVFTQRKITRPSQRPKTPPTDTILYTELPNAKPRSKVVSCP
T16 sequence (Q8N743 26-410 H321N limits assumed): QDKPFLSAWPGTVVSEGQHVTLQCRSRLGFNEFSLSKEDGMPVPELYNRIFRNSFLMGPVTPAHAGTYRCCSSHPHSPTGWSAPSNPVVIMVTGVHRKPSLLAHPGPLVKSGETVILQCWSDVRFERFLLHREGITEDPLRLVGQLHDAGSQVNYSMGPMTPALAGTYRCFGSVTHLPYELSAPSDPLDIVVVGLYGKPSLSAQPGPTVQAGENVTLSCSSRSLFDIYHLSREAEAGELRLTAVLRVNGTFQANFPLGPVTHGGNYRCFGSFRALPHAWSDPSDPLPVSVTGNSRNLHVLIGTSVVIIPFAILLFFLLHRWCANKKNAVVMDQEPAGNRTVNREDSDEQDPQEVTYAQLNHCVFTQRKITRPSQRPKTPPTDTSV
T7 sequence (P43626 22-348 limits assumed): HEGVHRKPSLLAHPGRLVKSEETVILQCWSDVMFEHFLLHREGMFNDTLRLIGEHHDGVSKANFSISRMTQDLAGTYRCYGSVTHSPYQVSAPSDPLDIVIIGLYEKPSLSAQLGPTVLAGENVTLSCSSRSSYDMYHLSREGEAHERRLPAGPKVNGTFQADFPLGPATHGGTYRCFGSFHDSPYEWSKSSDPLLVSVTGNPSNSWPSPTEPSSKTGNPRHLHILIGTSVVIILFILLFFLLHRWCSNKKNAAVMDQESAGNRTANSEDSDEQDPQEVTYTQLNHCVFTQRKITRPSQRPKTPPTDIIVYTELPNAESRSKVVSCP
T3 sequence (Q8NHK3 22-375 limits assumed): as the sequence (Q8N109 22-375 limits assumed) above, with N152D, G174S counted along it
T12 sequence (P43631 22-304 limits assumed): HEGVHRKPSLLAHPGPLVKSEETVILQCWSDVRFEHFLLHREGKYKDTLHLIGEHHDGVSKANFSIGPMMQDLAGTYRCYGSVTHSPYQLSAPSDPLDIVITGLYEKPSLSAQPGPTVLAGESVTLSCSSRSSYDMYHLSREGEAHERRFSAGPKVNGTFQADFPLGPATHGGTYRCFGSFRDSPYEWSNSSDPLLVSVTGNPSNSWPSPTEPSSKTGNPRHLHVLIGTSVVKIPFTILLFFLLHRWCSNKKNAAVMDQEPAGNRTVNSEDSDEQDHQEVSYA
T14 sequence (Q14943 22-382 limits assumed): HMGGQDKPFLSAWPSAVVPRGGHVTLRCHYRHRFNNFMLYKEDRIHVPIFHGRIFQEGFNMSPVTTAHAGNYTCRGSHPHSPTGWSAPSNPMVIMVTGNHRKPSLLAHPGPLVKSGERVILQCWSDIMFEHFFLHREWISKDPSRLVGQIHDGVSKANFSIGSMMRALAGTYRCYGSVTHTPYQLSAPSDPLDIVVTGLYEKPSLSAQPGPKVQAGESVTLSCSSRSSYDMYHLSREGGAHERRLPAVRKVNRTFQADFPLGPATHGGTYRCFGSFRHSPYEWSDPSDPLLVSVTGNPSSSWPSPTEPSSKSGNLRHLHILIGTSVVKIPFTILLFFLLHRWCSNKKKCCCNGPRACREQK
T13 sequence (Q14954 22-304 limits assumed): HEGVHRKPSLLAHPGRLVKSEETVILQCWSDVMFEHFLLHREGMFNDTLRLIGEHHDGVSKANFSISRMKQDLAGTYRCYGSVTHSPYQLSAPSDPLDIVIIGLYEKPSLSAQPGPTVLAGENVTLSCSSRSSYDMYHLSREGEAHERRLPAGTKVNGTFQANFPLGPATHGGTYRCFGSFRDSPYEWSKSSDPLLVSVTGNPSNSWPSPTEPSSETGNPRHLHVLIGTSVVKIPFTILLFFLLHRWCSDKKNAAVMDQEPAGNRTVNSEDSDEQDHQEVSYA
T10 sequence (Q14952 22-304 limits assumed): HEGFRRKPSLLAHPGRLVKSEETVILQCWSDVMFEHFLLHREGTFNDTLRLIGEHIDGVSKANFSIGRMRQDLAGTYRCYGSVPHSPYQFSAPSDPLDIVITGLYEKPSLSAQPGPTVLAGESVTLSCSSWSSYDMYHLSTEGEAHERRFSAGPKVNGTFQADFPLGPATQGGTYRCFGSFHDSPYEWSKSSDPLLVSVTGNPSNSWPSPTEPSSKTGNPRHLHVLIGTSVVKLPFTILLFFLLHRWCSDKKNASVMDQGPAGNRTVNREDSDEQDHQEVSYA
T15 sequence (P43628 22-341 limits assumed): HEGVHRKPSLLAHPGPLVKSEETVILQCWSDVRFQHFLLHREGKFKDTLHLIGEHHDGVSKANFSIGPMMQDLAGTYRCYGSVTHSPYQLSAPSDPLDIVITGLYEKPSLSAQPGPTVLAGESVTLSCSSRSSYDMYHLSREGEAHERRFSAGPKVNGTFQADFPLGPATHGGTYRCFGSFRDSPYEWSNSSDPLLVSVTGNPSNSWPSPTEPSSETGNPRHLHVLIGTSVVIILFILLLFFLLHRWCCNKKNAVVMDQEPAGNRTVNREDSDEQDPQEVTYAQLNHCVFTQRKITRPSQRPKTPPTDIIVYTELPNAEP
T11 sequence (Q14953 22-304 limits assumed): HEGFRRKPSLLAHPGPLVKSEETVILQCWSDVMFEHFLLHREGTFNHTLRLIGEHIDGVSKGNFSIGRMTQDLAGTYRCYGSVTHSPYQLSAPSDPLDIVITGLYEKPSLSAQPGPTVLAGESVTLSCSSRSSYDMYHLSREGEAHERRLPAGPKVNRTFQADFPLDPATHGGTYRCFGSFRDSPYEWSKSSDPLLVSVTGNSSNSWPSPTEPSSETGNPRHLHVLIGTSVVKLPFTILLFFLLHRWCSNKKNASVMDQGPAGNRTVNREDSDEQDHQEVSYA

| Binder | binding result [11] | binding result [12] | binding result [13] | binding result [14] | binding result [15] | binding result [16] | binding result [17] | binding result [18] | binding result [19] | binding result [20] | binding result [21] | further results |
| --- | --- | --- | --- | --- | --- | --- | --- | --- | --- | --- | --- | --- |
| Human HHLA2-mIgG2a fusion protein (Fc fusion, also called HHLA2-Ig; HHLA2-mouse IgG2a; not shown: mutated at IgG2a L235E, E318A, K320A, K322A) IFPLAFFIYVPMNEQIVIGRLDEDIILPSSFERGSEVVIHWKYQDSYKVHSYYKGSDHLESQDPRYANRTSLFYNEIQNGNASLFFRRVSLLDEGIYTCYVGTAIQVITNKVVLKVGVFLTPVMKYEKRNTNSFLICSVLSVYPRPIITWKMDNTPISENNMEETGSLDSFSINSPLNITGSNSSYECTIENSLLKQTWTGRWTMKDGLHKMQSEHVSLSCQPVNDYFSPNQDFKVTWSRMKSGTFSVLAYYLSSSQNTIINESRFSWNKELINQSDFSMNLMDLNLSDSGEYLCNISSDEYTLLTIHTVHVEPSQETASHN |  |  |  |  |  |  |  |  |  |  |  | binding result [1]: no binding (tested: 20 ug/ml); binding result [2]: no binding (tested: 20 ug/ml); binding result [3]: no binding (tested: 20 ug/ml); binding result [4]: no binding (tested: 20 ug/ml); binding result [5]: no binding (tested: 20 ug/ml); binding result [6]: no binding (tested: 20 ug/ml); binding result [7]: no binding (tested: 20 ug/ml); binding result [8]: no binding (tested: 20 ug/ml); binding result [9]: no binding (tested: 20 ug/ml) |
| KIR3DL3 mAb 574.2.8C2.12.3.10 (antibody, IgG2a, V domains shown, Mouse hybridoma antibody, IgG2a; only variable domains given; also called AVS-3706) VH: KVQLQQSGAELVRPGTSVKVSCKASGYAFTNYLIEWVKQRPGQGLEWIGVINPGSGGTNDNEKFRDKATLTADKSSSTAYMQLSSLTSDDSAVYFCARGNYYGTTDWYFDVWGAGTTVTVSS VL: QIVLTQSPAIMSASLGERVTMTCTASASVSSSSLHWYQQKPGSPPKFWIYSTTNLASGVPTRFSGSGSGTSYSLTISNMEAEDAATYYCHQYHRSPPTFGGGTKLEIK | no binding (tested: supernatant 1:5, 1:25, 1:250) | no binding (tested: supernatant 1:5, 1:25, 1:250) | no binding (tested: supernatant 1:5, 1:25, 1:250) | no binding (tested: supernatant 1:5, 1:25, 1:250) | no binding (tested: supernatant 1:5, 1:25, 1:250) | no binding (tested: supernatant 1:5, 1:25, 1:250) | no binding (tested: supernatant 1:5, 1:25, 1:250) | no binding (tested: supernatant 1:5, 1:25, 1:250) | no binding (tested: supernatant 1:5, 1:25, 1:250) | no binding (tested: supernatant 1:5, 1:25, 1:250) | no binding (tested: supernatant 1:5, 1:25, 1:250) | binding result [10]: binds |
| KIR3DL3 mAb 574.2.1G7.9.9 (antibody, IgG2b, V domains shown, Mouse hybridoma antibody, IgG2b; only variable domains given; also called AVS-3701) VH: ELKLEESGGGLVQPGGSMKLSCVASGFTFSNYWMNWVRQSPEKGLEWIAEIRLKSNNYATHYAESVKGRFTISRDDSKSSVYLQMNNLRAEDTGIFYCTPFYGSSFPYWGQGTLVTVSA VL: DIQMTQTTSSLSASLGDRVTISCRASQDISNYLNWYQQKPDGTVKLLIYYTSILQLGVPPRFSGSGSGTDYSLTISNLEQEDIATYFCQQGNTLPFTFGAGTKVELK | no binding (tested: supernatant 1:5, 1:25, 1:250) | no binding (tested: supernatant 1:5, 1:25, 1:250) | no binding (tested: supernatant 1:5, 1:25, 1:250) | no binding (tested: supernatant 1:5, 1:25, 1:250) | no binding (tested: supernatant 1:5, 1:25, 1:250) | no binding (tested: supernatant 1:5, 1:25, 1:250) | no binding (tested: supernatant 1:5, 1:25, 1:250) | no binding (tested: supernatant 1:5, 1:25, 1:250) | no binding (tested: supernatant 1:5, 1:25, 1:250) | no binding (tested: supernatant 1:5, 1:25, 1:250) | no binding (tested: supernatant 1:5, 1:25, 1:250) | IC50 [22]: 0.61 µg/mL; Kd [23]: 0.13 µg/mL; Jurkat IL-2 Luciferase Activation, EC50 [24]: 0.37 µg/mL; Jurkat IL-2 Luciferase, Fold Activation [24]: 9.9 fold; binding result [25]: no binding (tested: supernatant 1:5, 1:25, 1:250); binding result [26]: no binding (tested: supernatant 1:5, 1:25, 1:250); EC50 [27]: 0.13 µg/mL; IC50 [28]: 0.06 µg/mL |
